Assay results published in US20130064834A1 (published 2013).

T1: his-tagged Syrian golden hamster (Mesocricetus auratus) PCSK9 (Syrian golden hamster (Mesocricetus …))
T1 construct: also called maPCSK9-h; maPCSK9
T1 chain: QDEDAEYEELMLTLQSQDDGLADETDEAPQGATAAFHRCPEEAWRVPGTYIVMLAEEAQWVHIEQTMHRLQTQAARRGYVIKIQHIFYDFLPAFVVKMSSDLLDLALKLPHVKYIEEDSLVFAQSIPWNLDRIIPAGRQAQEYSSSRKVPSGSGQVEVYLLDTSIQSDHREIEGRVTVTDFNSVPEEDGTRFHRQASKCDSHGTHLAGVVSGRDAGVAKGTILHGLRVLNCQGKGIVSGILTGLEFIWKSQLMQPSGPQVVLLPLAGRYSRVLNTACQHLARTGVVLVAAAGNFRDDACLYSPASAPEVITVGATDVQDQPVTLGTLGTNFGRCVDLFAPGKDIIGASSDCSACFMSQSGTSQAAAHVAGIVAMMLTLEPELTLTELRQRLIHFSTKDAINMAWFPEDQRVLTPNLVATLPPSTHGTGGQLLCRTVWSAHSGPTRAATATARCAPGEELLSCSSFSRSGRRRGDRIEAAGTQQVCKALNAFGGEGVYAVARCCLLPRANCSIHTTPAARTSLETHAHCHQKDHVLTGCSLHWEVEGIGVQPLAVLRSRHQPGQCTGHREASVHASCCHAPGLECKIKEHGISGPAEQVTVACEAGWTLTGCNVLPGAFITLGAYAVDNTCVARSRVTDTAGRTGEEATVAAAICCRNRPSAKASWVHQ


How the values were obtained:
[1] = target: T2, mouse PCSK9, myc-myc-his tagged (mouse, UniProt Q80W65 35-694); experiment: competition ELISA vs EGF-A-hFc, pH 7.2
T2 construct: also called mPCSK9-mmh; mPCSK9
Description: (§1) Briefly, hLDLR-ecto, hLDLR EGF-A-hFc or hLDLR EGF-AB-hFc, each at 2 μg/ml, was coated on a 96-well plate in PBS buffer overnight at 4° C., and nonspecific binding sites blocked with BSA. […] The equilibrated sample solutions were transferred to receptor or receptor fragment coated plates.

[2] = target: T3, tagged rhesus monkey (Macaca mulata) PCSK9 (rhesus monkey (Macaca mulata), UniProt A8T666 31-692); experiment: competition ELISA vs EGF-A-hFc, pH 7.2
T3 construct: also called mmPCSK9-mmh; mmPCSK9
T3 sequence (A8T666 31-692 limits assumed): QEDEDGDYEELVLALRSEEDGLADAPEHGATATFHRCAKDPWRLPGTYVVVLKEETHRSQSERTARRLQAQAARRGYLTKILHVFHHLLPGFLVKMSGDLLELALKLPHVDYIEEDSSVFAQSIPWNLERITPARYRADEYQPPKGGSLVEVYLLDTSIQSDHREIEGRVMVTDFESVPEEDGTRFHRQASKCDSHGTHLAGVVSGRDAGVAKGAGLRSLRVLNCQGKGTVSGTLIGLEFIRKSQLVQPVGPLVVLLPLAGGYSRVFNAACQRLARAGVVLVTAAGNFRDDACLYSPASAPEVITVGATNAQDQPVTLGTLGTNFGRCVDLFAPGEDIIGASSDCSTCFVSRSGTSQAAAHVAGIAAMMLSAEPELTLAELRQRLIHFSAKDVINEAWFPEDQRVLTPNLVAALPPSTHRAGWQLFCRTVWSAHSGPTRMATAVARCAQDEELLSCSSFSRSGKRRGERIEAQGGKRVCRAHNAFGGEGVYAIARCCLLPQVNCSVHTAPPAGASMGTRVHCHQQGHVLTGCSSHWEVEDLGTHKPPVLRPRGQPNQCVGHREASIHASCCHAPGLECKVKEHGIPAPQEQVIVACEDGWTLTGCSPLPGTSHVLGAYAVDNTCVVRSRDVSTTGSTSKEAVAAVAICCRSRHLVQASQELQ
Description: as §1

[3] = target: T2, mouse PCSK9, myc-myc-his tagged; experiment: competition ELISA vs EGF-AB-hFc, pH 7.2
Description: as §1

[4] = target: T3, tagged rhesus monkey (Macaca mulata) …; experiment: competition ELISA vs EGF-AB-hFc, pH 7.2
Description: as §1

[5] = target: T2, mouse PCSK9, myc-myc-his tagged; experiment: competition ELISA vs EGF-A, pH 5.5
Description: as §1

[6] = target: T3, tagged rhesus monkey (Macaca mulata) …; experiment: competition ELISA vs EGF-A, pH 5.5
Description: as §1

Human PCSK9-myc-myc-his [7] = target: T4, Human PCSK9-myc-myc-his (human, UniProt Q8NBP7 31-692); experiment: competition ELISA vs EGF-A, pH 5.5
T4 construct: also called hPCSK9-mmh; hPCSK9
Description: as §1

[8] = target: T1, his-tagged Syrian golden hamster …; experiment: competition ELISA vs EGF-A, pH 5.5
Description: as §1

[9] = target: T5, rat (Rattus norvegicus) PCSK9, myc-myc-his tagged (rat (Rattus norvegicus), UniProt P59996 31-691); experiment: competition ELISA vs EGF-A, pH 5.5
T5 construct: also called rPCSK9-mmh; rPCSK9
T5 sequence (P59996 31-691 limits assumed): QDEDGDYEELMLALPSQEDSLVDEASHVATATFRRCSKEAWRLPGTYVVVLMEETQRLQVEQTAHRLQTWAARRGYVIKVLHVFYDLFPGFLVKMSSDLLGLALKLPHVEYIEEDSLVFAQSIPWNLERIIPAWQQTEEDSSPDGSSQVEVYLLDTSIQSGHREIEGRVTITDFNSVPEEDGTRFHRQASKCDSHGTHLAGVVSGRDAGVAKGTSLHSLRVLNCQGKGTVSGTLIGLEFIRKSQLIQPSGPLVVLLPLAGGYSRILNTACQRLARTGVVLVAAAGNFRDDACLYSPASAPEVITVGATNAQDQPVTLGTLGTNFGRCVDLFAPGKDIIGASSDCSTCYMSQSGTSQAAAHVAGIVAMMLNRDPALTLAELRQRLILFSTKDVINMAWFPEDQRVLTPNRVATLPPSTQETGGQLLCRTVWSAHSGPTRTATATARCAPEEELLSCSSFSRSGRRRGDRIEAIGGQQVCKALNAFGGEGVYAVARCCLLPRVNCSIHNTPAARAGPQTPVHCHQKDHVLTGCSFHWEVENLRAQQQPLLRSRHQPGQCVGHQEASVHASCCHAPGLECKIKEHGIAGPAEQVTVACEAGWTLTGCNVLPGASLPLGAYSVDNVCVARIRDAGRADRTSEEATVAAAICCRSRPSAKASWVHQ
Description: as §1

hPCSK9(D374Y)-mmh [10] = target: T6, hPCSK9(D374Y)-mmh (human, UniProt Q8NBP7 31-692); experiment: SPR, mAb amine-coupled, 25C, pH 7.4
T6 construct: also called hPCSK(D374Y)-mmh
Excerpt: (§2) Briefly, mAbs were immobilized onto BIACORE™ CM5 sensor chips via amine coupling.

[11] = target: T7, cynomolgus monkey (Macaca fascicularis) PCSK9, myc-myc-his tagged (cynomolgus monkey (Macaca fascicularis), UniProt A8T662 31-692 (Macaca nemestrina entry), limits assumed); experiment: SPR, mAb amine-coupled, 25C, pH 7.4
T7 construct: also called mfPCSK9-mmh; mfPCSK9
T7 sequence (A8T662 31-692 limits assumed): as the sequence (A8T666 31-692 limits assumed) above, with P607A, K639E counted along it
Excerpt: as §2

Human PCSK9-myc-myc-his [12] = target: T4, Human PCSK9-myc-myc-his; experiment: SPR, mAb amine-coupled, 25C, pH 7.4
Excerpt: as §2

Human PCSK9-myc-myc-his [13] = target: T4, Human PCSK9-myc-myc-his; experiment: cell-based or functional assay
hPCSK9(D374Y)-mmh [14] = target: T6, hPCSK9(D374Y)-mmh; experiment: competition ELISA vs EGF-A-hFc, pH 5.5
Description: as §1

hPCSK9(D374Y)-mmh [15] = target: T6, hPCSK9(D374Y)-mmh; experiment: SPR, mAb captured on anti-human IgG, 25C
[16] = target: T7, cynomolgus monkey (Macaca fascicularis) …; experiment: SPR, mAb amine-coupled, 37C, pH 7.4
Excerpt: as §2

hPCSK9(D374Y)-mmh [17] = target: T6, hPCSK9(D374Y)-mmh; experiment: cell-based or functional assay
[18] = target: T2, mouse PCSK9, myc-myc-his tagged; experiment: cell-based or functional assay
Target sequence in this assay (Q80W65 35-694 limits assumed): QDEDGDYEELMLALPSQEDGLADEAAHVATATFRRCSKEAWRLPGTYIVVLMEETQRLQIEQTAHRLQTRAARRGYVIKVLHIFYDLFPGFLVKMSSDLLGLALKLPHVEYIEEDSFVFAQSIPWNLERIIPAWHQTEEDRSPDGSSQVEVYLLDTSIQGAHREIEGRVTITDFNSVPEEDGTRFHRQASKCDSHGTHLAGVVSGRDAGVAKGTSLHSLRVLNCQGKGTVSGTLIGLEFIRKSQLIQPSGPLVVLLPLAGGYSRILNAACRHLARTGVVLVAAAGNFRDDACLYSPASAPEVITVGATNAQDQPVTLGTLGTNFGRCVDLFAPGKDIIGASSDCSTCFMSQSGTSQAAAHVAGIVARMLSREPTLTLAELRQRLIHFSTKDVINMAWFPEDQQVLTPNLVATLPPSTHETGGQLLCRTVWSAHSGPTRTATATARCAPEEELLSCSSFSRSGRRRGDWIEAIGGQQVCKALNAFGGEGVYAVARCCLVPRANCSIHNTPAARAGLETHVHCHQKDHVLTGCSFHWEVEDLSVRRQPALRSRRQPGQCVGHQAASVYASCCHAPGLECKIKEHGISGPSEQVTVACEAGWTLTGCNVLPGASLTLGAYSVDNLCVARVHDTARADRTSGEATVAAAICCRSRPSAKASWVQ

[19] = target: T7, cynomolgus monkey (Macaca fascicularis) …; experiment: cell-based or functional assay
Human PCSK9-myc-myc-his [20] = target: T4, Human PCSK9-myc-myc-his; experiment: cell-based or functional assay; remark: listed apart in the source
[21] = target: T1, his-tagged Syrian golden hamster …; experiment: cell-based or functional assay
[22] = target: T5, rat (Rattus norvegicus) PCSK9, …; experiment: cell-based or functional assay
Human PCSK9-myc-myc-his [23] = target: T4, Human PCSK9-myc-myc-his; experiment: competition ELISA vs hLDLR-ecto, pH 7.2
Description: as §1

hPCSK9(P70A) = hPCSK9(P70A) (human, UniProt Q8NBP7 31-692); experiment: ELISA, mAb coated, variant 0-5 nM
Description: Anti-PCSK9 mAbs were coated on a 96-well plate overnight at 4° C.

Binder	IC50 [1] [nM]	IC50 [2] [nM]	IC50 [3] [nM]	IC50 [4] [nM]	IC50 [5] [nM]	IC50 [6] [nM]	IC50 (Human PCSK9-myc-myc-his [7]) [nM]	IC50 [8] [nM]	IC50 [9] [nM]	Kd (hPCSK9(D374Y)-mmh [10]) [nM]	T1/2 (hPCSK9(D374Y)-mmh [10]) [min]	Kd [11] [nM]	T1/2 [11] [min]	Kd (Human PCSK9-myc-myc-his [12]) [nM]	T1/2 (Human PCSK9-myc-myc-his [12]) [min]	IC50, LDL uptake in HepG2 cells with 50 nM hPCSK9-mmh (Human PCSK9-myc-myc-his [13]) [nM]	IC50 (hPCSK9(D374Y)-mmh [14]) [nM]	Kd (hPCSK9(D374Y)-mmh [15]) [nM]	T1/2 (hPCSK9(D374Y)-mmh [15]) [min]	Kd [16] [nM]	also measured
H1H316P (antibody, V domains shown, Fully human mAb made in CHO cells; also called mAb316P) VH: EVQLVESGGGLVQPGGSLRLSCAASGFTFNNYAMNWVRQAPGKGLDWVSTISGSGGTTNYADSVKGRFIISRDSSKHTLYLQMNSLRAEDTAVYYCAKDSNWGNFDLWGRGTLVTVSS VL: not shown	< 0.25	< 0.25	< 0.25	< 0.25	0.991	< 0.25	< 0.125	1.3	42.9	2.49	15	1.42	42	1.26	36	21.3	1.12	1.78	14	3.77	T1/2 [16]: 11 min; IC50, LDL uptake in HepG2 cells (hPCSK9(D374Y)-mmh [17]): 2.1 nM; IC50, LDL uptake in HepG2 cells [18]: 21.2 nM; IC50, LDL uptake in HepG2 cells [19]: 14.7 nM; IC50, LDL uptake in HepG2 cells (Human PCSK9-myc-myc-his [20]): 14.1 nM; IC50, LDL uptake in HepG2 cells [21]: 14.4 nM; IC50, LDL uptake in HepG2 cells [22]: 27.7 nM; IC50 (Human PCSK9-myc-myc-his [23]): < 0.125 nM; OD (hPCSK9(P70A)): > 1.5 od
H1M300N (antibody, V domains shown, Fully human version made in CHO cells) VH: EMQLVESGGGLVQPGGSLRLSCAASGFTFSSHWMKWVRQAPGKGLEWVANINQDGSEKYYVDSVKGRFTISRDNAKNSLFLQMNSLRAEDTAVYYCARDIVLMVYDMDYYYYGMDVWGQGTTVTVSS VL: not shown	> 33	0.256	> 33	0.29	> 100	3.7	0.223	> 100	> 100	1.31	46	2.17	31	1.1	76	22.1	3.46	1.06	49	4.81	T1/2 [16]: 8 min; IC50, LDL uptake in HepG2 cells (hPCSK9(D374Y)-mmh [17]): 11 nM; IC50, LDL uptake in HepG2 cells [18]: > 500 nM; IC50, LDL uptake in HepG2 cells [19]: 13.4 nM; IC50, LDL uptake in HepG2 cells (Human PCSK9-myc-myc-his [20]): 12.6 nM; IC50, LDL uptake in HepG2 cells [21]: > 500 nM; IC50, LDL uptake in HepG2 cells [22]: > 500 nM; IC50 (Human PCSK9-myc-myc-his [23]): 0.144 nM; OD (hPCSK9(P70A)): > 1.5 od
